Data: the nanobody polyreactivity screen of Harvey et al. (2022)

Assay: yeast display, Sf9 membrane polyspecificity reagent, FACS + sequencing; frameworks hold sequencing errors
How it was run: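 Nanobodies from a synthetic yeast display library (Saccharomyces cerevisiae BJ5465), induced 36–48 hours with galactose, were stained 1 hour at 4 °C with 10% biotinylated, detergent-solubilized Sf9 membrane reagent, enriched on streptavidin microbeads, then FACS-sorted. Anti-HA (expression) and streptavidin (reagent binding) fluorescence set low and high (top ~1%) gates. Polyreactivity labels come from the gate of origin. Genes were colony-PCR amplified, MiSeq 2 × 250 sequenced and filtered by CDR length.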

Row | Sequence | polyreactivity (PSR sort gate)
1 | QVQLVESGGGLVQAGGSLRLSCAASGSIFYGNTMGWYRQAPGKERELVAAITWSGDSTYYADSVKGRFTISRDNAKNTVYLQMNSLKPEDTAVYYCNADQTGVYYAGEGNYWGQGTQVTVSS | low polyreactivity
2 | QVQLVESGGGLVQAGGSLRLSCAASGSIFYGYAMGWFRQAPGKEREFVADITSSGVSTYYADSVKGRFTISRDNAKNSVYLQINSLKPEDTAVYYCAKLRRYYSSVYHKFVFYTDDYWGQGSQVTVSS | high polyreactivity
3 | QVQLVESGGGLVQAGGSLRLSCAASGSIFYGYAMGWYRQAAGKERELVARITGSGGDTSYADSVKGRFTISRDNSKNTVYLQMNSLKPEDTALYYCNTDLYITYTLYTGSEYDYWGQGTQVTVSS | low polyreactivity
4 | QVQLVESGGGLVQAGGSLRLSCAASGSIFYGYAMGWYRQAPGKERELVAAIRYSDGSTYYADSVKGRFTISRDNAKNTVYLQMNSLKPEDTAVYYCAKKRRNYIGYYYWGQGTQVTVSS | high polyreactivity
5 | QVQLVESGGGLVQAGGSLRLSCAASGSIFYGYAMGWYRQAPGKERELVAAITWIDGSTYYADSVKGRFTISRDNAKNPVFLQLTSLKPEDTAVYYCAAGGYFYSFYYWGQGTQVTVSS | low polyreactivity
6 | QVQLVESGGGLVQAGGSLRLSCAASGSIFYGYAMGWYRQATGKERELVAAITSGGSTYYADSVKGRFTISRDNAKNTVYLQMNSLKPEDTAVYYCAADYPSRYWRIDYEYWGQGTQVTVSS | high polyreactivity
7 | QVQLVESGGGLVQAGGSLRLSCAASGSIFYGYTMGWSRQAPGKEREFVAAITGSGGSTYYADSVKGRFTISRDTPKNTVYVQMNTLKPEDTAVYYCAARRYVNRRYDYWGQGTQVTVSS | high polyreactivity
8 | QVQLVESGGGLVQAGGSLRLSCAASGSIFYGYTMGWYRQEPRKERELVAAIRKSGGSTNYADSVKGRFTISRDTAKNTVYLQMNSLKPEDTALYNCAADYYRRRGYYWGQGTQVTVSS | high polyreactivity
9 | QVQLVESGGGLVQAGGSLRLSCAASGSIFYHNAMGWYRQAPGKERELVAAISYRTGRTYYADSVKGRFTISRDNAKNTVYLQMNSLKPEDTAVYYCAAPYSWGQGTQVTVSS | high polyreactivity
10 | QVQLVESGGGLVQAGGSLRLSCAASGSIFYHNTMGWYIQAPGKERELITYYADSVKGRFTISRDNAKNTVYLQMNSLKPEDTAVYYCAASPVSRTGPGDYDFWGQGTQVTVSS | low polyreactivity
11 | QVQLVESGGGLVQAGGSLRLSCAASGSIFYHYAMGWSRQAPGKERELVAAITRSGGSTYYADSVKGRFTISRDNAKHTVYLQMNSLKPEDTAVYYCAKDPDSYNFLTSNWYDYWGQGTQVTVSS | low polyreactivity
12 | QVQLVESGGGLVQAGGSLRLSCAASGSIFYHYAMGWYRQAPGKERELVAAISQSGGGTYYADSVKGRFTISRDNAKNTVYLQMNSLKPEDTAVYYCNRLSKQKQEFDYWGQGTQVTVSS | high polyreactivity
13 | QVQLVESGGGLVQAGGSLRLSCAASGSIFYINAMGWYRQAPGKERELVAAINRGGSTNYADSVKGRFTISRDNAKNTVYLQMNSLKPEDTAVYYCAAYIYKTYRYYYWGQGTQVTVSS | high polyreactivity
14 | QVQLVESGGGLVQAGGSLRLSCAASGSIFYIYALGWYRQAPGKERELVAAISRSGGRTYYADSVKGRFTISRDNAKNTVYLQMNSLKPEDTGVYYCAARRYTAYDYWGQGTQVTVSS | high polyreactivity
15 | QVQLVESGGGLVQAGGSLRLSCAASGSIFYIYAMGWYRQAPGKERELVARISTGGSTHYADSVKGRFTISRDNAKNTVYLQMNSLKPEDTAVYYCDAPYWLWDGEGEYDYWGQGTQVTVSS | low polyreactivity
16 | QVQLVESGGGLVQAGGSLRLSCAASGSIFYIYAMGWYRQAPGKERELVATISHRGGSTYYADSVKGRFTISRDNAKNTVYLQMNSLKPEDTAVYYCAARSYYSWGRPLPSFNYWGQGTQVTVSS | high polyreactivity
17 | QVQLVESGGGLVQAGGSLRLSCAASGSIFYKNAMGWYRQAPGKERELVAAITYSGGSTYYADSVKGRFTISRDNAKNTVYLQMNSLKTEDTAVYYCAADIGVYGERREEEYDYWGQGTQVTVSS | low polyreactivity
18 | QVQLVESGGGLVQAGGSLRLSCAASGSIFYKNAMGWYRQAPGKERELVAVISWSGGSTSYADSVKGRFTISRDNAKNTVYLQMNSLKPEDTAVYYCAKEYFTDYLYEYDYWGQGTQVTVSS | low polyreactivity
19 | QVQLVESGGGLVQAGGSLRLSCAASGSIFYKYTMGWYRPAPGKERELVAAISRSGGRTYYADSVKGRFTISRDNAKNTVYLQMNSLKPEDTAVYYCARDLKIVEYDYWGQGTQVTVSS | low polyreactivity
20 | QVQLVESGGGLVQAGGSLRLSCAASGSIFYLNAMGWYRQAPGKERELVATISNGGSTNYADSVKGRFTISRDNAKNTVYLQMNSLKPEDTAVYYCATGVIREGDYWGQGTKVTVSS | low polyreactivity
21 | QVQLVESGGGLVQAGGSLRLSCAASGSIFYLYAMGWYRQAPGKERELVAAITSIGGSTYADSVKGRFTISRDNAKNTVYLQMNSLKPEDTAVYYCNADGLYEKWGPWTVPYYYWGQGTQVTVSS | low polyreactivity
22 | QVQLVESGGGLVQAGGSLRLSCAASGSIFYLYAMGWYRQAPGKERELVATISTGSGRTYYADSVKGRFTISRDNAKNTVYLQMNSLKPEDTAVYYCAASRTLRKHRYEYWGQGTEVTVSS | high polyreactivity

Row | Sequence | polyreactivity (PSR sort gate)
23 | QVQLVESGGGLVQAGGSLRLSCAASGSIFYPYAMGWYRQAPGKERELVAAISSGGRTYYADSVKGRFTISRDNAKNTVYLQMNSLKPEDTAVYYCAARPKAYGRPPGYYWGQGTQVTVSS | high polyreactivity
24 | QVQLVESGGGLVQAGGSLRLSCAASGSIFYPYAMGWYRQATGKERELVAVITDTGSTYYADSVKGRFTISRDNAKNTVYLQMNSLKPEDTAVYYCYRTSYVKTPTKRYNYWGQGTQVTVSS | low polyreactivity
25 | QVQLVESGGGLVQAGGSLRLSCAASGSIFYQNAMGWSRQAPGKEWELVAAISWSGGSTYYADSVKGRFTISRDNAKNTDFLQMNSLKPEDTAVYYCNKYVRFRGGAYVTGYDYWGQGTQVTVSS | high polyreactivity
26 | QVQLVESGGGLVQAGGSLRLSCAASGSIFYQYAMGWNRQAPGKERELVAVINRSGSSTYYADSVKGRFTISRDNAKNTVYLQMNSLKPEDNAVYYCAAASKYSEYNYWGQGTEVTVSS | high polyreactivity
27 | QVQLVESGGGLVQAGGSLRLSCAASGSIFYQYAMGWYRQAPGKEREFVAAITRRGTSTYYADSVKGRFTISRDIAKNTVYLQMNSLKPEDTAVYYCAARYGPNMDYWGQGTQVTVSS | high polyreactivity
28 | QVQLVESGGGLVQAGGSLRLSCAASGSIFYRNALGWYRQAPGKERELVAAISSDGSTNYADSVKGRFTISRDNAKNTVYLQLNSLKPEDTAVYYCAAPWTQILDYWGQGTQVTVSS | low polyreactivity
29 | QVQLVESGGGLVQAGGSLRLSCAASGSIFYRNAMGCYIQAPGKERELVAAITSSGVSTYYADSVKGRFTISRDNAKNTVYLQMNSLKPEDTAVYYCAARSVYTGRPYYYWGQGTQVTVSS | high polyreactivity
30 | QVQLVESGGGLVQAGGSLRLSCAASGSIFYRNAMGWYRQAPGKERELVAAISASGGSTYYADSVKGRFTISRDNAKNTVYLQMNSLNPEDTAFYYCAVEYRKSRSYYPYYYWGQGTQVTVSS | high polyreactivity
31 | QVQLVESGGGLVQAGGSLRLSCAASGSIFYRNAMGWYRQAPGKERELVAAISSDGSTNYADSVKGRFTISRDNAKNTVYLQMNSLKPEDTAVYFCAAPWTQILDYWGQGTQVTVSS | low polyreactivity
32 | QVQLVESGGGLVQAGGSLRLSCAASGSIFYRNAMGWYRQAPGKERELVAAITSRGGRTYYADSVKGRFTISRDNAKNTVYLQMTSLKPEDTAVYYCAADYRYPAHSYGYWGQGTQVTVSS | high polyreactivity
33 | QVQLVESGGGLVQAGGSLRLSCAASGSIFYRNAMGWYRQAPGKERELVAAITWSGVNTYYADSVKGRFTISRDNAKNTVYLQMNSLKPEDTAVYYCAVPSRYWLNRGFDYWGQGTQVTVSS | low polyreactivity
34 | QVQLVESGGGLVQAGGSLRLSCAASGSIFYRYAMGGYRQAPGKERELVAAISSRGGSTYYADSVKGRFTISRDTAKNTVYLQMNSLKPEDTAVYYCNKDNHDLELPVEFEYWGQGTQVTVSS | high polyreactivity
35 | QVQLVESGGGLVQAGGSLRLSCAASGSIFYRYVMGWYRQAPGKERELVAAITSDGSTNYADSVKGRFTISRDNAKNTVYLQMNSLKPEDTAVYYCNARSYRGRFDYWGQGTQVTVSS | low polyreactivity
36 | QVQLVESGGGLVQAGGSLRLSCAASGSIFYSNAMGLSRQAPGKEREWVATITSGDSTNYADSVKGRFTISRDNAKNTVYLQMNSLKPEDTAVYYCAADSSLYEWFDWPWERGQSVESWGQGTQVTVSS | low polyreactivity
37 | QVQLVESGGGLVQAGGSLRLSCAASGSIFYSNAMGWYRQAPGKERQLVAAIDSGTSTNYADSVKGRFTISRDNAKNTVYLQMNSLKPEDTAVYYCARLLGPVRDKYDYDYWGQGTQVTVSS | low polyreactivity
38 | QVQLVESGGGLVQAGGSLRLSCAASGSIFYSYAMGGYRQAPGKERELVAAITDSGDSTYYADSVKGRFTISRDNAKNTVYLQMNSLKPEDTAVYYCAAGFYPYYYWGQGTQVTVSS | low polyreactivity
39 | QVQLVESGGGLVQAGGSLRLSCAASGSIFYSYAMGWYRHAPGKERELVAAISWDASTYYADSVKGRFTISRDNAKNTVYLQMNSLKPEDTAVYYCNADIPYYFVYDAYDFWGQGTQVTVSS | low polyreactivity
40 | QVQLVESGGGLVQAGGSLRLSCAASGSIFYSYAMGWYRQAPGKEREFVATITWSGGRTYYADSVKGRFTISRDNAKNTFYLQMNSLKPEDTAVYYCNKRLFPYKGDYWGQGTQVTVSS | low polyreactivity
41 | QVQLVESGGGLVQAGGSLRLSCAASGSIFYSYAMGWYRQAPGKERELVAAITDSGDDTYYADSVKGRFTISRDNAKNTVYLQMNSLKPEDSAVYYCAAEQIYYTSDSSYFVTYDDWGQGTQVSVSS | high polyreactivity
42 | QVQLVESGGGLVQAGGSLRLSCAASGSIFYTNAMGWYRPAPGKERELVAAIRTGGSTNYADSVKGRFTISRDNAKNTVYLQMNSLKPEDTAVYYCAAAYGYGHKKYGYWGQATQVTVSS | low polyreactivity
43 | QVQLVESGGGLVQAGGSLRLSCAASGSIFYTNAMGWYRQAPGKEMEFVASITYRGSNTYYADSVKGRFTISRDNAKTTVYLQMNSLKPEDTAVYYCGADSFYYRPEYDYWGLGTQVTVSS | low polyreactivity
